One assay concerns the target HLA-B*44:02. Description: IEDB peptide-MHC binding, purified MHC/competitive/radioactivity; filed as Kd, often an IC50 or EC50 that approximates it; ≥ and ≤ were set here for values at or beyond the usual limits of such assays.
For the next assay, the target named is HLA-B*44:03. Described as above.
In a further assay the target is HLA-B*40:01. Description: IEDB peptide-MHC binding, purified MHC/direct/fluorescence; filed as Kd, often an IC50 or EC50 that approximates it; ≥ and ≤ were set here for values at or beyond the usual limits of such assays. Conditions: source organism: Mycobacterium tuberculosis variant bovis.
The target of assay [1] is HLA-A*24:02. The assay is described as follows: IEDB peptide-MHC binding, purified MHC/competitive/fluorescence; ≥ and ≤ were set here for values at or beyond the usual limits of such assays.
Assay [2] has as its target HLA-A*01:01. The assay is described as follows: IEDB peptide-MHC binding, purified MHC/competitive/radioactivity; filed as Kd, often an IC50 or EC50 that approximates it; ≥ and ≤ were set here for values at or beyond the usual limits of such assays. As to conditions: source organism: SARS coronavirus Tor2.
For assay [3], the target named is HLA-A*11:01. The description is as above. As to conditions: source organism: SARS coronavirus Tor2.
For the next assay, the target named is HLA-A*23:01. The assay is described as above. As to conditions: source organism: SARS coronavirus Tor2.
The target in assay [4] is HLA-A*24:02. The assay is described as above. Conditions: source organism: SARS coronavirus Tor2.
The target of a further assay is HLA-A*26:01. The description is as above.
In another assay the target is HLA-A*29:02. The description is as above. As to conditions: source organism: SARS coronavirus Tor2.
The target of the next assay is HLA-A*30:02. The description is as above. Conditions: source organism: SARS coronavirus Tor2.
In another assay the target is HLA-A*31:01. The description is as above. Conditions: source organism: SARS coronavirus Tor2.
The target of another assay is HLA-A*33:01. The assay is described as above. As to conditions: source organism: SARS coronavirus Tor2.
The target of a further assay is HLA-A*68:01. Described as above. As to conditions: source organism: SARS coronavirus Tor2.
In the next assay the target is HLA-A*32:01. The description is as above.
The target of the next assay is HLA-B*53:01. Described as above.
In the next assay the target is HLA-B*51:01. The description is as above.
A further assay has as its target HLA-A*02:01. The assay is described as follows: IEDB peptide-MHC binding, purified MHC/competitive/fluorescence; ≥ and ≤ were set here for values at or beyond the usual limits of such assays.
Assay [5] concerns the target HLA-A*01:01. Description: IEDB peptide-MHC binding, purified MHC/direct/fluorescence; filed as Kd, often an IC50 or EC50 that approximates it; ≥ and ≤ were set here for values at or beyond the usual limits of such assays. As to conditions: source organism: Homo sapiens.
Assay [6] has as its target HLA-A*11:01. Described as above. As to conditions: source organism: Homo sapiens.
For another assay, the target named is HLA-A*69:01. The assay is described as above. As to conditions: source organism: Homo sapiens.
In the next assay the target is HLA-A*02:02. The assay is described as follows: IEDB peptide-MHC binding, purified MHC/competitive/radioactivity; filed as Kd, often an IC50 or EC50 that approximates it; ≥ and ≤ were set here for values at or beyond the usual limits of such assays. As to conditions: source organism: Vaccinia virus WR.
The next assay deals with HLA-A*02:03. Described as above. Conditions: source organism: Vaccinia virus WR.
The target in the next assay is HLA-A*02:06. The assay is described as above. As to conditions: source organism: Vaccinia virus WR.
[7] abbreviates: source organism: Dengue virus 1 Brazil/97-11/1997.
[8] abbreviates: source organism: Dengue virus 2 Jamaica/1409/1983.
[9] abbreviates: source organism: Dengue virus 3 Martinique/1243/1999.
The mark [10] stands for this setting: source organism: Sudan ebolavirus.
The mark [11] stands for this setting: source organism: Dengue virus 4 Philippines/H241/1956.
The mark [12] stands for this setting: source organism: Zaire ebolavirus.
The mark [13] stands for this setting: source organism: Vaccinia virus WR.

Some results are limits rather than exact numbers.

Consider ADSGCVINW, for which, in the assay with HLA-B*44:02 (setting [7]), the dissociation constant (Kd) is 0.0707 µM. With AEAIFKLTY, the dissociation constant Kd with HLA-B*44:02 (setting [8]) stood at 0.00367 µM; with HLA-B*44:03 (setting [8]), 0.0347 µM.

With AEIPLQWIA, the Kd in the assay with HLA-B*44:02 (setting [9]) stood at 0.0686 µM; in the assay with HLA-B*44:03 (setting [9]) it was 0.634 µM. For AELEDGAYRI, the Kd with HLA-B*44:02 (setting [8]) worked out at 0.016 µM; in the assay with HLA-B*44:03 (setting [8]), 0.0179 µM. Turning to AEPIDIQTW, the Kd with HLA-B*44:03 (source organism: Homo sapiens) turned out to be 0.066 µM. As for AEQIVLGVI, the Kd with HLA-B*40:01 turned out to be 0.0611 µM. As for AERVLDWLEK, in the assay with HLA-B*44:02 (setting [7]), the Kd amounted to 3.27 µM. Take AFHKDGAFF: the concentration for half-maximal inhibition (IC50) with HLA-A*24:02 [1] (setting [10]) came to 9.67 µM. As for AMYADDTAGW, the dissociation constant (Kd) with HLA-B*44:02 (setting [8]) was 0.124 µM.

Consider ATSRTLSYY, for which the Kd with HLA-A*01:01 [2] was 0.00481 µM; with HLA-A*11:01 [3], 0.0285 µM; in the assay with HLA-A*23:01, ≥ 77.8 µM; with HLA-A*24:02 [4] it was ≥ 35.7 µM; with HLA-A*26:01 (source organism: SARS coronavirus Tor2) it was 1.94 µM; in the assay with HLA-A*29:02 it was 0.012 µM. Besides, the Kd with HLA-A*30:02 was 0.00103 µM; with HLA-A*31:01, 3.88 µM; with HLA-A*33:01 it was ≥ 77.7 µM; with HLA-A*68:01 it was 1.2 µM. As for AVLTGGVTL, in the assay with HLA-A*32:01 (setting [7]), the Kd stood at 6.69 µM. As to CVIASSGMLW, the Kd amounted to 1.22 µM with HLA-A*26:01 (setting [9]) and 0.0222 µM with HLA-B*53:01 (setting [9]). Turning to EEHKETWHY, the Kd with HLA-B*44:02 (setting [11]) amounted to 0.203 µM; with HLA-B*44:03 (setting [11]) it was 0.0169 µM. On to EEPVPMSTY, for which the Kd with HLA-B*44:02 (setting [9]) stood at 0.36 µM. Turning to EEREIPERSW, the values for the Kd in the assay with HLA-B*44:02 (setting [8]) and with HLA-B*44:03 (setting [8]) were 0.0665 µM and 0.242 µM, respectively. EPEVANLDI: the Kd with HLA-B*51:01 (setting [7]) is ≥ 44.5 µM; in the assay with HLA-B*53:01 (setting [7]), 7.23 µM. EPPFGESYI: the equilibrium dissociation constant (Kd) with HLA-B*51:01 (setting [7]) stood at 13.8 µM. For the sequence FHKDGAFFL, the IC50 with HLA-A*02:01 (setting [10]) was ≥ 92.9 µM; in the assay with HLA-A*24:02 [1] (setting [10]), 6.73 µM.

With FSGKGPLRMV, the Kd with HLA-B*51:01 (setting [11]) was ≥ 38 µM.

In the case of GAFFLYDRL, the concentration for half-maximal inhibition (IC50) with HLA-A*02:01 (setting [10]) is ≥ 158 µM; with HLA-A*24:02 [1] (setting [10]), ≥ 122 µM. As for GPLTTLWEGS, the dissociation constant (Kd) with HLA-A*32:01 (setting [7]) is 18.2 µM. Turning to GSAKLRWFVE, the Kd with HLA-A*32:01 (setting [8]) was ≥ 22.2 µM. Consider GSEDRDLLY, for which the Kd with HLA-A*01:01 [5] turned out to be 0.0426 µM; in the assay with HLA-A*11:01 [6], 6.94 µM; with HLA-A*69:01 it was 3.96 µM. With GTNGNHMQI, the results for the 50% inhibitory concentration (IC50) with HLA-A*02:01 (setting [10]) and with HLA-A*24:02 [1] (setting [10]) were 62.9 µM and 3.02 µM, respectively. For the sequence HAYQGDYKL, the IC50 in the assay with HLA-A*02:01 (setting [12]) is ≥ 78 µM; with HLA-A*24:02 [1] (setting [12]), 20.9 µM. On to HYWTTQDEG, for which the IC50 in the assay with HLA-A*24:02 [1] (setting [12]) was found to be 42.8 µM. Turning to IEKTKTDFGF, the Kd with HLA-B*44:02 (setting [11]) was determined as 1.73 µM. As for ISLFYTFAI, the equilibrium dissociation constant (Kd) in the assay with HLA-A*32:01 (setting [13]) is 0.000567 µM. Take ITLVVISVI: the dissociation constant Kd in the assay with HLA-A*02:02 was 15.1 µM; with HLA-A*02:03 it was 1.81 µM; with HLA-A*02:06 it was 1.03 µM; in the assay with HLA-A*32:01 (setting [13]), ≥ 35.3 µM. For the sequence KDFFSSHPL, the values for the IC50 with HLA-A*02:01 (setting [12]) and in the assay with HLA-A*24:02 [1] (setting [12]) were ≥ 249 µM and 55.1 µM, respectively.

On to KFMSNGEHV, for which the IC50 with HLA-A*02:01 (setting [13]) is 27.7 µM; with HLA-A*24:02 [1] (setting [13]), 4.44 µM.

Turning to KLFYVYYNL, in the assay with HLA-A*32:01 (setting [13]), the Kd was found to be 0.000344 µM.

Regarding KRSNTTGKL, in the assay with HLA-A*24:02 [1] (setting [12]), the IC50 was 66.1 µM.

What is called Kd is a measure of binding affinity in units of concentration. The IC50 is the point on the concentration scale where inhibition reaches its midpoint. Higher therefore signals a need for much substance.

The values are drawn from the Immune Epitope Database (IEDB).
